Experimental data: article PMC9604545

Legend:
[1] = target: human legumain, activated asparaginyl-specific endopeptidase (AEP) (human) (UniProt Q99538); assay: SEC; legumain incubated with hCE-K75A at a 1:4 molar ratio in 50 mM citric acid pH 4.0, 100 mM NaCl for 1 h at 37 °C, till complete RCL hydrolysis; Superdex 75 or S200 10/300 GL in 20 mM citric acid pH 4.0, 50 mM NaCl; peak fractions analysed by SDS-PAGE
[2] = target: human legumain, activated asparaginyl-specific endopeptidase (AEP) (human) (UniProt Q99538); assay: enzyme inhibition kinetics (Ki from initial velocities, Morrison equation); hCE-K75A at 1.5 nM to 1.6 µM mixed with 50 µM AAN-AMC in 20 mM citric acid pH 5.5, 50 mM NaCl, 0.05% Tween-20; reaction started with 2 nM legumain; 10 min at 37 °C

UniProt Q99538, sequence (Q99538 18-323): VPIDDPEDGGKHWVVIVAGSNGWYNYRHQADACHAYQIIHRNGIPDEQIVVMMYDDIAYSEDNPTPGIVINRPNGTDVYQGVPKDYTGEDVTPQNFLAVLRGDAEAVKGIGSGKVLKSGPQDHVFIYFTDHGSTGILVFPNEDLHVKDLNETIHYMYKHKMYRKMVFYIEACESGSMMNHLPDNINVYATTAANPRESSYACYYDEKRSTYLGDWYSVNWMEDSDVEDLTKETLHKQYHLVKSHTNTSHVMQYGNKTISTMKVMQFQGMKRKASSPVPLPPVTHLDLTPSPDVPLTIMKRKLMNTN

human cystatin M/E-K75A mutant, cleaved by legumain after P1-Asn39 on the reactive center loop (complex)
molar ratio of enzyme:inhibitor in the complex peak (enzyme:inhibitor) [1]: 1

human cystatin M/E-K75A mutant, intact (natural protein)
Ki [2]: 19.8 nM
